The text below walks through data of patent publication US20150274802A1 (INDIANA UNIVERSITY RESEARCH AND TECHNOLOGY, published 2015).

By IC50 is commonly meant the concentration that gives 50% inhibition. Read a high IC50 as weaker potency.

Values joined by “and” are separate entries in the source; they are usually repeats but may differ in a detail not shown here. Identical values can stand only once. Bridge positions count the residues as written; N and C are the ends. Square brackets hold non-standard residues; d marks the D form. Ends that are not written are not given here. I, II: the chains in the order shown. Phe(4-NH2) = Nc1ccc(C[C@H](N)C(=O)O)cc1

First the molecules themselves.
B1: MIU-57: B1-PEG20K MIU-35 (ligand)
chain: {PEG 20 kDa}-GPEHLCGAHLVDALYLVCGDRGFYGYGSSSRRAPQTGIVDECCHRSCDLRRLENYCN
modifications: ends and bridges not checked
B2: IGF-1 A:B (ligand, human)
chain 1: GIVDECCFRSCDLRRLEMYCA
chain 2: GPETLCGAELVDALQFVCGDRGFYFNKPT
modifications: not fully specified (C-terminus); ends and bridges not checked; also: C-terminal amide, chain not given here
notes: domain: B chain; two-chain form of IGF-1
B3: IGF-1 A:B(H5D10Y16L17) (S═O) DPI (ligand)
chain 1: GIVDECCFRSCDLRRLEMYCA-NH2
chain 2: GPEHLCGADLVDALYLVCGDRGFY-NH2
modifications: ends and bridges not checked; also: (S═O) oxidation, residue not given here
B4: IGF-1 A:B (H5D10Y16L17) DPI (ligand)
chain 1: GIVDECCFRSCDLRRLEMYCA-NH2
chain 2: GPEHLCGADLVDALYLVCGDRGFY-NH2
modifications: cysteine pairing not given here
B5: IGF-1 A (H8 A9 N21):B(H5D10Y16L17 A22) DPI A-COOH (ligand)
chain 1: GIVDECCHASCDLRRLEMYCN-OH
chain 2: GPEHLCGADLVDALYLVCGDAGFY
modifications: not fully specified (C-terminus); ends and bridges not checked
B6: IGF-1 A (H8 A9 N21):B(H5D10Y16L17A22) (S═O) DPI A-COOH (ligand)
chain 1: GIVDECCHASCDLRRLEMYCN-OH
chain 2: GPEHLCGADLVDALYLVCGDAGFY
modifications: not fully specified (C-terminus); ends and bridges not checked; also: (S═O) oxidation, residue not given here
B7: IGF-1 A:IGF-1 B(1-8)-In (9-17)-IGF-1 B(18-30) (ligand)
chain 1: GIVDECCFRSCDLRRLEMYCA-NH2
chain 2: GPETLCGSHLVEALYLVCGDRGFYFNKPT-NH2
modifications: disulfide I:6-I:11, I:20-II:18, I:7-II:6 (inferred); not fully specified
notes: chimeric B chain
B8: IGF-2 AB(YL) (ligand)
chain 1: not shown
chain 2: AYRPSETLCGGELVDTLYLVCGDRGFYFSRPA
modifications: C-terminal amide
B9: IGF-1 A:In B(1-5)-IGF-1 B(YL) (6-30) (ligand)
chain 1: GIVDECCFRSCDLRRLEMYCA
chain 2: FVNQHLCGAELVDALYLVCGDRGFYFNKPT
modifications: ends and bridges not checked; also: C-terminal amide, chain not given here
notes: chimeric B chain
B10: IGF-1 A:B(E10Y16L17)-E31E32 B-COOH (ligand)
chain 1: GIVDECCFRSCDLRRLEMYCA
chain 2: GPETLCGAELVDALYLVCGDRGFYFNKPTEE-OH
modifications: not fully specified (C-terminus); ends and bridges not checked
B11: IGF-1 A:B (E10Y16L17) DPI (ligand)
chain 1: GIVDECCFRSCDLRRLEMYCA-NH2
chain 2: GPETLCGAELVDALYLVCGDRGFY-NH2
modifications: cysteine pairing not given here
B12: IGF-1 A:B(D10Y16L17) DPI A-COOH (ligand)
chain 1: GIVDECCFRSCDLRRLEMYCA-OH
chain 2: GPETLCGADLVDALYLVCGDRGFY-NH2
modifications: ends and bridges not checked
B13: IGF-1 A (H8 A9 N21):B(H5D10Y16L17) DPI A-COOH (ligand)
chain 1: GIVDECCHASCDLRRLEMYCN-OH
chain 2: GPEHLCGADLVDALYLVCGDRGFY
modifications: not fully specified (C-terminus); ends and bridges not checked
B14: GE5W-B^1(H5,10Y16L17)25-C^1-A^1(A1H8N18,21) (ligand)
chain: GEEEEEWGPEHLCGAHLVDALYLVCGDRGFYGYGSSSRRAPQTAIVDECCHRSCDLRRLENYCN
B15: B^1(H5,10Y16L17)25-C^1-A^1(T8N18,21) (ligand)
chain: GPEHLCGAHLVDALYLVCGDRGFYGYGSSSRRAPQTGIVDECCTRSCDLRRLENYCN
B16: IGF1(Y^B16L^B17)(AlaPro)^A-1,0 (ligand)
chain 1: APGIVDECCFRSCDLRRLEMYCA
chain 2: GPETLCGAELVDALYLVCGDRGFYFNKPT
B17: IGF-1 A:B(E10Y16L17) (ligand)
chain 1: GIVDECCFRSCDLRRLEMYCA-NH2
chain 2: GPETLCGAELVDALYLVCGDRGFYFNKPT-NH2
modifications: cysteine pairing not given here
B18: IGF1 (Y^B16L^B17) (p-NH2-F)^A19 amide (ligand)
chain 1: GIVDECCFRSCDLRRLEM[Phe(4-NH2)]CA
chain 2: GPETLCGAELVDALYLVCGDRGFYFNKPT
modifications: not fully specified; ends and bridges not checked
notes: also called IGF1 (Y^B16L^B17) A(p-NH2-F)^19

One assay addresses T1, human IGF-1 receptor (human, UniProt P08069 31-1367). As to the kind of experiment: cell-based or functional assay.
With B1, the “Phosphorylation (EC50), % IGF-1 R” value was 1.2%.

The target in another assay is T2, human insulin receptor (human, UniProt P06213 28-1382).
T2 construct: whole, on cells; receptor-transfected HEK293 cells in the phosphorylation assay
Kind of assay: competition SPA, [125I]insulin. The method, then:
(§1) Non-specifically bound (NSB) radioactivity was measured in the wells with a four-fold concentration excess of “cold” native ligand than the highest concentration in test samples. Total bound radioactivity was detected in the wells with no competitor. Percent specific binding was calculated as following: % Specific Binding=(Bound-NSB/Total bound-NSB)×100. IC50 values were determined by using Origin software (OriginLab, Northampton, Mass.).
B2: the “% insulin (in test)” value is 5.8%, the “% native insulin activity (0.6 nM)” value came out at 5.8% and the IC50 was 10.4 nM.

For the molecule B3, the “% insulin (in test)” value was found to be 316% and the IC50 is 0.25 nM.

In the case of B4, the “% insulin (in test)” value was 479% and the IC50 was 0.16 nM.

As to B5, the “% insulin (in test)” value turned out to be 1170% and the IC50 turned out to be 0.12 nM.

B6: the “% insulin (in test)” value came to 401%.

In the case of B7, the “% insulin (in test)” value turned out to be 19.1%, the “% native insulin activity (0.6 nM)” value stood at 37.7% and the IC50 stood at 1.59 nM.

Consider B8, for which the IC50 amounted to 6.81 nM.

The next assay has as its target T1, human IGF-1 receptor. As to the kind of experiment: competition SPA, [125I]IGF-1. On the procedure: as §1
Consider B9, for which the “% IGF-1 (in test)” value was found to be 3.6% and the “% native IGF-1 activity (0.55 nM)” value stood at 2%.

Turning to B10, the “% IGF-1 (in test)” value turned out to be 3% and the “% native IGF-1 activity (0.55 nM)” value was determined as 3.1%.

On to B4, for which the “% IGF-1 (in test)” value came to 11.2% and the “% native IGF-1 activity (0.55 nM)” value was found to be 11.8%.

For B5, the “% IGF-1 (in test)” value is 2.3% and the “% native IGF-1 activity (0.55 nM)” value is 2.4%.

On to B11, for which the “% IGF-1 (in test)” value turned out to be 3.3% and the “% native IGF-1 activity (0.55 nM)” value turned out to be 2.4%.

With B12, the “% IGF-1 (in test)” value was determined as 7.7% and the “% native IGF-1 activity (0.55 nM)” value was found to be 8.1%.

Turning to B13, the “% IGF-1 (in test)” value is 12.9% and the “% native IGF-1 activity (0.55 nM)” value was found to be 13.6%.

Take B7: the “% IGF-1 (in test)” value is 0.3% and the “% native IGF-1 activity (0.55 nM)” value turned out to be 0.4%.

Another assay concerns the target T1, human IGF-1 receptor. As to the kind of experiment: cell-based or functional assay. The source holds these as a separate data set.
For B1, the “% (potency at the receptor, assay not named)” value was determined as 1.2%.

Consider B14, for which the “% (potency at the receptor, assay not named)” value worked out at 0.5%.

As to B15, the “% (potency at the receptor, assay not named)” value was 3.7%.

For the next assay, the target named is T2, human insulin receptor. As to the kind of experiment: competition SPA, [125I]insulin. The source holds these as a separate data set.
For the molecule B16, the IC50 came out at 1.93 nM.

The next assay addresses T1, human IGF-1 receptor. Kind of assay: cell-based or functional assay. This is another data set of the same source.
As to B4, the “% IGF” value came to 7.1% and the “EC50, receptor phosphorylation” value stood at 12.2 nM.

As to B5, the “% IGF” value was 7.7% and the “EC50, receptor phosphorylation” value turned out to be 11.3 nM.

In the case of B12, the “% IGF” value amounted to 112% and the “EC50, receptor phosphorylation” value was determined as 0.78 nM.

With B13, the “% IGF” value was 181% and the “EC50, receptor phosphorylation” value is 0.43 nM.

A further assay has as its target T2, human insulin receptor. As to the kind of experiment: cell-based or functional assay.
B10: the “EC50, receptor phosphorylation” value is 7 nM and 8.52 nM.

Consider B5, for which the “EC50, receptor phosphorylation” value is 0.35 nM and 0.44 nM.

B12: the “% Insulin” value was determined as 1580%.

As to B13, the “EC50, receptor phosphorylation” value is 0.15 nM and 0.25 nM.

In the case of B17, the “% Insulin” value worked out at 49.2% and the “EC50, receptor phosphorylation” value worked out at 2.57 nM.

For the next assay, the target named is T1, human IGF-1 receptor. As to the kind of experiment: cell-based or functional assay. The source holds these as a separate data set.
Consider B1, for which the “% Insulin Activity (in vitro, assay not named)” value came to 1.2%.

For a further assay, the target named is T2, human insulin receptor. As to the kind of experiment: competition SPA, [125I]insulin. This is another data set of the same source.
For B18, the IC50 was found to be 1.08 nM.
